Laboratory results taken from patent US20090263370A1, “METHODS FOR TREATING TACHYKININ-MEDIATED DISEASES WITH CHOLINESTERASE” (priority 2006, published 2009).
Values joined by “and” are separate entries in the source; they are usually repeats but may differ in a detail not shown here. Equal values may be shown once.

Tests used:
Substance P (SP) = assay: Hydrolysis of Substance P (SP) by cholinesterase, flight mass spectrometry; format: biochemical; conditions: for first restriction site: SP C-terminal
Method: Hydrolysis of SP was performed by acetylcholinesterase and butyrylcholinesterase separately.
1) Butyrylcholinesterase, specific activity 200 U, 50 mg of dry powder was dissolved in 5 mL of aqueous solution of iron(III) (double distilled water, Fe^+3 content, 1 mg/L) and centrifuged at 10,000 r/min for 4 minutes;
2) Butyrylcholinesterase, specific activity 200 U, 50 mg of dry powder was dissolved in 5 mL of double distilled water and centrifuged at 10,000 r/min for 4 minutes;
3) Acetylcholinesterase, specific activity 300 U, 20 mg of dry powder was dissolved in 1 mL of double distilled water and centrifuged at 10,000 r/min for 4 minutes.
SP, with purity 98%, in an aqueous solution at a concentration 0.5 μg/mL.
3. Reaction 100 μL of the substrate and 100 μL of enzyme were mixed, and the initial reaction temperature was 22° C.
Flight mass spectrometry: 1 μL of matrix (CHCA) and 1 μL of the reactant were mixed, and the mixture was directly assayed by flight mass spectrometry.

Wister rats = assay: Anti-inflammatory experiment with adjuvant arthritis rats; format: in vivo
Text: (§1) 1. Materials and Reagents
1) Reagents: butyrylcholinesterase aqueous solution (activity: 300 U per mL solution) prepared following the method of Example 2; Fenbid liniment (ibuprofen), manufactured by GlaxoSmithKline (China) Investment Co, Ltd., Product batch number: 04050471.
2) Animals: Wister rats, 30, weight 200±2 g, of either sex, from Laboratory Animal Center, Sun Yat-sen University.
Wister rats were randomly grouped into 3 groups with each group of 10. Following the method taught in Pharmacological Experimental Methodology (The third edition) (Xu Shuyun, et al., People's Health Publishing House, 2002, 1), each rat was administered 0.1 mL of Freund's adjuvant (FCA) in the right hindlimb by intradermal injection. After 0.5 h, the experimental group and Fenbid group were separately administered butylcholineterase aqueous solution and Fenbid in the inflammatory site of the right hindlimb, one time per day for a week. At 2 h, 6 h, 12 h, 24 h, 48 h, 72 h and 7 d after administration, the swelling degree of the right hindlimb of rats was separately measured by a vernier caliper.

Kunming mice = assay: Analgesic experiment on mice by acetic acid twisting method; format: in vivo; conditions: for Inhibition rate (%): compared with saline solution group; for Writhing number: within 15 minutes after 0.6% acetic acid i.p.
Text: as §1
1) Reagents: acetic acid, manufactured by Guangdong Xinning Chemical Plant; butyrylcholinesterase (activity: 200 U per mL solution) prepared following the method of Example 2; Fenbid liniment (ibuprofen), produced by GlaxoSmithKline (China) Investment Co, Ltd., Product batch number: 04050471.
2) Animals: Kunming mice, 40, weight 20±2 g, of either sex.
Saline solution group (negative control group);
Experimental group 1, smeared with butyrylcholinesterase aqueous solution;
Experimental group 2, intraperitoneal injection with butyrylcholinesterase aqueous solution; and
Fenbid group (positive control group).
40 Kunming mice were randomly grouped with each group 10. The negative control group was administered 0.9% saline solution (0.1 mL/10 g) by intraperitoneal injection. An area of 1×1 cm of the hair of the mice of the experimental group 1 was cut in the back, and butyrylcholinesterase (enzyme activity: 200 U per mL solution) was smeared onto it. The experimental group 2 was administered 0.1 mL/10 g butyrylcholinesterase solution (enzyme activity: 200 U per mL solution) by intraperitoneal injection. An area of 1×1 cm of the hair of the mice of the positive control group was cut in the back, and Fenbid was smeared onto it. Each group of mice was fed in different cages. At 5 minutes after administration, following the method taught in Pharmacological Experimental Methodology (3rd Edition) (Xu Shuyun, et al., People's Health Publishing House, 2002, 1), each mouse was administered 0.6% acetic acid ([…]) by intraperitoneal injection, and the writhing number of mice within 15 minutes was recorded. The number was compared with that of saline solution group (0.9%) to calculate writhing inhibition rate in mice.

[1] = test system: patients with summer diarrhea; assay: Prevention and treatment of summer diarrhea; format: in vivo; conditions: 0.5 mL of 200 U aqueous solution in 3 mL cold water, rinsed in mouth and swallowed, repeated after two hours
Method: To 0.5 mL of butyrylcholinesterase (enzyme activity 200 U) aqueous solution, 3 mL of cold water was added. A portion of the solution was placed into the mouth of a patient, and lightly rinsed for 5-10 minutes. Then, the solution was swallowed. Two hours later, the previous steps were repeated.

patient with tinea pedis = assay: Prevention and treatment of tinea pedis; format: in vivo
Method: To 2 L of warm water lower than 40° C. was added 2 mL of acetylcholinesterase aqueous solution (enzyme activity 300 U), and stirred slowly. The feet of a patient were immersed in the solution for 30 minutes, two times per day for three consecutive days.

[2] = test system: patients with wound caused by trauma, burn or scald; assay: Prevention and treatment of trauma and inflammation; format: in vivo; conditions: enzyme activity 300 U, sprayed 1-3 times directly onto wound
Text: Acetylcholinesterase (enzyme activity 300 U) was sprayed 1-3 times directly onto a wound. If necessary, gauze pretreated with acetylcholinesterase may also cover the wound. […] Pains disappeared. If the wound was not already inflamed, inflammation was not observed, the wound recovered naturally, and a week later dead skin started to fall off. If the wound was inflamed, the inflammation would not develop; three days later, the wound recovered naturally. The mentioned-above wound was a wound caused by trauma, burn or scald.

[3] = test system: patients with swelling gingivitis and pain; assay: Prevention and treatment of gingivitis; format: in vivo; conditions: 300 U
Method: Patients suffered from swelling gingivitis and pain. Sterile cotton swab was wetted by acetylcholinesterase (enzyme activity 300 U) and placed on the affected area for 10 min, one or two times per day.

[4] = test system: patient who caught a cold at early stage; assay: Prevention and treatment of common cold; format: in vivo; conditions: 200 U glycerol solution nasal spray
Text: Acetylcholinesterase (enzyme activity 200 U) glycerol solution was sprayed to the nose of a patient who caught a cold at early stage, 3-5 times per day, one spray each time. Within an hour, symptoms such as headache and fever disappeared. Three days later, other symptoms disappeared, and overall wellbeing of the patient recovered to normal.

[5] = test system: patients with allergic rhinitis; assay: Prevention and treatment of allergic rhinitis; format: in vivo; conditions: 300 U glycerol solution nasal spray, 3-5 times per day for a week; a month later, in most patients
Text: Acetylcholinesterase (enzyme activity 300 U) glycerol solution was sprayed to the nose of a patient, 3-5 times per day, one spray each time. The course of treatment lasted a week.

[6] = intraperitoneal injection 0.1 mL/10 g, 200 U per mL

B1: Butyrylcholinesterase (protein, UniProt P06276 29-602, looked up)
Cholinesterase: EDDIIIATKNGKVRGMNLTVFGGTVTAFLGIPYAQPPLGRLRFKKPQSLTKWSDIWNATKYANSCCQNIDQSFPGFHGSEMWNPNTDLSEDCLYLNVWIPAPKPKNATVLIWIYGGGFQTGTSSLHVYDGKFLARVERVIVVSMNYRVGALGFLALPGNPEAPGNMGLFDQQLALQWVQKNIAAFGGNPKSVTLFGESAGAASVSLHLLSPGSHSLFTRAILQSGSFNAPWAVTSLYEARNRTLNLAKLTGCSRENETEIIKCLRNKDPQEILLNEAFVVPYGTPLSVNFGPTVDGDFLTDMPDILLELGQFKKTQILVGVNKDEGTAFLVYGAPGFSKDNNSIITRKEFQEGLKIFFPGVSEFGKESILFHYTDWVDDQRPENYREALGDVVGDYNFICPALEFTKKFSEWGNNAFFYYFEHRSSKLPWPEWMGVMHGYEIEFVFGLPLERRDNYTKAEEILSRSIVKRWANFAKYGNPNETQNNSTSWPVFKSTEQKYLTLNTESTRIMTKLRAQQCRFWTSFFPKVLEMTGNIDEAEWEWKAGFHRWNNYMMDWKNQFNDYTSKKESCVGL
capacity of hydrolyzing SP (Substance P (SP)): has the capacity of hydrolyzing SP
amount of product, with Fe^+3 (FIG. 3) compared with without Fe^+3 (FIG. 8) (Substance P (SP); 60 minutes): much more products having a molecular weight of 1104
first restriction site (Substance P (SP)): between Leu^10 and Met^11
molecular weight of products detected (Substance P (SP); in water without Fe^+3, FIGS. 6-9): 1217 and 1104
molecular weight of product detected (Substance P (SP); with Fe^+3 in water, at 25 minutes): 1217
molecular weight of new fragments detected (Substance P (SP); with Fe^+3 in water, at 60 minutes): 1104 and 900
Swelling degree of the right hind limb of rats (Wister rats; 2 h after administration): 0.74 ± 0.04
Swelling degree of the right hind limb of rats (Wister rats; 6 h after administration): 0.84 ± 0.04
Swelling degree of the right hind limb of rats (Wister rats; 12 h after administration): 0.87 ± 0.05
Swelling degree of the right hind limb of rats (Wister rats; 24 h after administration): 0.83 ± 0.05
Swelling degree of the right hind limb of rats (Wister rats; 48 h after administration): 0.74 ± 0.02
Swelling degree of the right hind limb of rats (Wister rats; 72 h after administration): 0.76 ± 0.05
Swelling degree of the right hind limb of rats (Wister rats; 7 d after administration): 0.67 ± 0.06
swelling degree compared with the negative control group (Wister rats; at 48 h, 72 h and 7 d after administration, P<0.05): significantly decrease the swelling degree
writhing number compared with the saline solution group (Kunming mice; either by intraperitoneal injection or by skin smearing, P<0.05): significantly decreased the writhing number
Inhibition rate (%) (Kunming mice; [6]): 26.6%
Writhing number (Kunming mice; [6]): 27.2 ± 9.50*Δ
inhibition rate on writhing compared with Fenbid (Kunming mice; intraperitoneal injection, P<0.05): higher inhibition rate on writhing in mice than Fenbid
Writhing number (Kunming mice; smeared onto 1×1 cm cut area of the back): 29.9 ± 5.17
Inhibition rate (%) (Kunming mice; smeared onto the back, 200 U per mL): 24.0%
number of the patients with summer diarrhea [1]: decreased greatly

B2: Acetylcholinesterase (protein, UniProt P22303 32-614, looked up)
Acetylcholinesterase: EGREDAELLVTVRGGRLRGIRLKTPGGPVSAFLGIPFAEPPMGPRRFLPPEPKQPWSGVVDATTFQSVCYQYVDTLYPGFEGTEMWNPNRELSEDCLYLNVWTPYPRPTSPTPVLVWIYGGGFYSGASSLDVYDGRFLVQAERTVLVSMNYRVGAFGFLALPGSREAPGNVGLLDQRLALQWVQENVAAFGGDPTSVTLFGESAGAASVGMHLLSPPSRGLFHRAVLQSGAPNGPWATVGMGEARRRATQLAHLVGCPPGGTGGNDTELVACLRTRPAQVLVNHEWHVLPQESVFRFSFVPVVDGDFLSDTPEALINAGDFHGLQVLVGVVKDEGSYFLVYGAPGFSKDNESLISRAEFLAGVRVGVPQVSDLAAEAVVLHYTDWLHPEDPARLREALSDVVGDHNVVCPVAQLAGRLAAQGARVYAYVFEHRASTLSWPLWMGVPHGYEIEFIFGIPLDPSRNYTAEEKIFAQRLMRYWANFARTGDPNEPRDPKAPQWPPYTAGAQQYVSLDLRPLEVRRGLRAQACAFWNRFLPKLLSATDTLDEAERQWKAEFHRWSSYMVHWKNQFDHYSKQDRCSDL
pain (patient with tinea pedis; 2 mL of 300 U solution in 2 L warm water, feet immersed 30 minutes, two times per day, three days): disappeared
ringworm spot, smell and other symptoms (patient with tinea pedis; one week later): all gone
pains [2]: disappeared
wound and inflammation in patients [2]: reduced significantly
capacity of hydrolyzing SP (Substance P (SP)): has the capacity of hydrolyzing SP
first restriction site (Substance P (SP)): between Leu^10 and Met^11
hydrolysis of C-terminal Met^11 of SP (Substance P (SP); in water, 0-30 minutes, FIGS. 10-15): hydrolyzed quickly
SP fragment finally left (Substance P (SP); in water, FIGS. 10-15): only a 1-5 peptide fragment was left
relapse and side effects ([3]; cotton swab on affected area): without relapse and side effects
inflammatory swelling ([3]; cotton swab on affected area 10 min, one or two times per day, two days later): disappeared
symptoms such as headache and fever ([4]; 3-5 times per day, within an hour): disappeared
other symptoms ([4]; three days later): disappeared
symptoms such as nasal obstruction, sneezing, runny nose, nose itching [5]: disappeared, without relapse
